Where two headings read alike, the source gives them in different places.
B1: ecotin M84R/M85R: Engineered version of ecotin, macromolecular inhibitor of chymotrypsin-fold serine proteases (protein)
chain: AESVQPLEKIAPYPQAEKGMKRQVIQLTPQEDESTLKVELLIGQTLEVDCNLHRLGGKLENKTLEGWGYDYYVFDKVSSPVSTRRACPDGKKEKKFVTAYLGDAGMLRYNSKLPIVVYTPDNVDVKYRVWKAEEKIDNAVVR

Key:
[1] = target: T1, His-MT-SP1 protease domain (Homo sapiens, UniProt Q9Y5Y6); assay: Substrate kinetics of purified His-MT-SP1 protease domain; type: biochemical
T1 construct: made in house; host or cells: E. coli X-90 (pQE30 vector)
T1 sequence (Q9Y5Y6 615-855 limits assumed, other chains not shown): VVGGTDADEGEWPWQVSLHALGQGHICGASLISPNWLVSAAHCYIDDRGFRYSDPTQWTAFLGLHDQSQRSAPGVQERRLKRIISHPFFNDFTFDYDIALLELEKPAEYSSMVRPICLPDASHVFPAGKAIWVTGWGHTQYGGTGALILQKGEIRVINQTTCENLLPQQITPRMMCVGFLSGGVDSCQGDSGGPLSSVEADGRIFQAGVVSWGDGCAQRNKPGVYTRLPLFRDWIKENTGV
Method: The purified serine protease domain was titrated with 4-methylumbelliferyl p-guanidinobenzoate (MUGB) to obtain an accurate concentration of enzyme active sites^(iii). Enzyme activity was monitored at 25° C. in assay buffer containing 50 mM Tris pH 8.8, 50 mM NaCl, and 0.01% Tween 20. The final concentration of substrate Spectrozyme tPA ranged from 1 μM–400 μM. Enzyme concentrations ranged from 40 pM–800 pM. Active site titrations were performed on a Fluoromax-2 spectrofluorimeter. Measurements were plotted using the KaleidaGraph program (Synergy, Reading, Pa.), and the Km, kcat, and kcat/Km for Spectrozyme tPA was determined using the Michaelis-Menten equation.

tumor = assay: Ecotin injected intraperitoneally, tumor growth; type: in vivo
explanted rat VP = assay: Rodent ventral prostate (VP) explant culture; type: cell-based; settings: for ductal branching morphogenesis and differentiation of rat ventral prostate: explant culture, testosterone-induced
Description: One useful model system for studying many issues that are pertinent to prostate cancer is the development of the rodent ventral prostate (VP) in explant cultures. Macromolecular inhibitors of serine proteases of the chymotrypsin fold, ecotin and ecotin M84R/M85R (see copending application Ser. Nos. 09/290,513 and 09/289,830, both filed on Apr. 12, 1999), inhibit ductal branching morphogenesis and differentiation of the explanted rat VP. […] Thus unidentified serine proteases may play a role in growth and prevention of apoptosis in prostate epithelial cells in this system.

PC-3 cells = assay: Subcutaneous coinjection of PC-3 cells with inhibitor; type: in vivo; settings: subcutaneous coinjection with PC-3 cells, compared to PC-3 cells and saline
uPA [2] = target: T2, uPA (Homo sapiens, UniProt P00749); settings: cited from earlier work
[3] = target: T3, His-tagged MT-SP1 serine protease domain (Homo sapiens, UniProt Q9Y5Y6); assay: Inhibition of MT-SP1 protease domain with ecotin and ecotin M84R/M85R; type: biochemical
T3 construct: made in house; host or cells: E. coli X-90 (pQE30 vector)
T3 sequence (Q9Y5Y6 615-855 limits assumed, other chains not shown): as above
Method: Ecotin and ecotin M84R/M85R were purified from E. coli as described in copending application Ser. Nos. 09/290,513 and 09/289,830, both filed on Apr. 12, 1999. Various concentrations of ecotin or ecotin M84R/M85R were incubated with the His-tagged serine protease domain in a total volume of 990 μL of buffer containing 50 mM NaCl, 50 mM Tris-HCl (pH 8.8), 0.01% Tween 20. 10 μL of Spectrozyme tPA was added, yielding a solution containing 100 μM substrate. The final enzyme concentration was 63 pM, and the ecotin and ecotin M84R/M85R concentration ranged from 0.1 nM to 50 nM. The data were fit to the equation derived for kinetics of reversible tight-binding inhibitors (Morrison (1969) Biochim. Biophys. Acta 185: 269–286, Williams and Morrison (1979) Methods. Enzymol. 63: 437–467), and the values for apparent Ki were determined.

PC-3 primary tumor = assay: PC-3 implanted nude mice, inhibitor treatment; type: in vivo; settings: treated seven weeks, compared to PBS-treated mice after four weeks
Description: Another well characterized model that is derived from human prostate cancer epithelial cells is the PC-3 cell line (Kaighn et al. (1979) Invest. Urology 17: 16–23). The PC-3 cell line expresses uPA as assayed by enzyme-linked immunosorbent assay (ELISA) and by Northern blotting of PC-3 mRNA (Yoshida et al. (1994) Cancer Res. 54: 3300–3304). […] Metastasis from the primary tumors similarly were similarly lower in the inhibitor-treated mice compared to PBS treated mice. Inhibition was not unexpected with ecotin M84R/M85R treatment, since uPA has been implicated in metastasis. […] Thus identification of the serine proteases expressed by PC-3 prostate cells may provide insight into the role of these proteases in cancer and prostate growth and development. In this example we have extended the strategy of using the polymerase chain reaction (PCR) with degenerate oligonucleotide primers that were designed using conserved sequence homology (Sakanari et al. (1989) Proc. Natl. Acad. Sci. USA 86: 4863–4867; Wiegand et al. (1993) Gene 136: 167–175, Kang et al. (1992) Gene 110: 181–187) to identify additional serine proteases made by cancer cells. […]

uPA [4] = target: T2, uPA; assay: Inhibition of uPA; type: biochemical

Molecule	hydrolysis of pNA substrate by the MT-SP1 protease domain [1]	tumor growth (tumor)	apoptosis in rat ventral prostate model (explanted rat VP)	ductal branching morphogenesis and differentiation of rat ventral prostate (explanted rat VP)	primary tumor size (PC-3 cells)	inhibition of uPA, in words (uPA [2])	inhibitor potency against uPA (uPA [2]) [nM]	inhibition of MT-SP1, in words [3]	primary tumor size (PC-3 primary tumor)	kcat [1] [s⁻¹]	Km ([1]; 25° C., 50 mM Tris pH 8.8, 50 mM NaCl, 0.01% Tween 20) [µM]	kcat ([1]; 25° C., pH 8.8)	fold more potent inhibitor of uPA compared to ecotin (uPA [4]) [fold]
NC(N)=NCCC[C@H](N)C(=O)Nc1ccc([N+](=O)[O-])cc1 [H-Arg-pNA, arginyl-pNA]	does not cleave												
ecotin: Macromolecular inhibitor of serine proteases of the chymotrypsin fold, purified from E. coli		inhibited	enhances	inhibits	decrease	poor, micromolar inhibitor	2800	potent, subnanomolar inhibitors	significantly smaller				
hexahydrotyrosyl-Gly-Arg-pNA [Spectrozyme tPA]										260	31.4 ± 4.2	2.6×10^2±6.5 s^−1	
B1			enhances	inhibits	decrease		1	potent, subnanomolar inhibitors	significantly smaller				2800

— patent US7227009B2, “MT-SP1 polynucleotides and polypeptides” (Catalyst Biosciences, Inc., priority 1999, dated 2007)
